Assay results published in patent publication US20190359687A1 (Bayer, published 2019).
Positions count from the first letter of the chain named. Names and notes keep the numbering of the source. No end group written: not given here.

T1: human glycophorin A on human red blood cells or red blood cell membranes (human, UniProt P02724 20-150)
T1 construct: whole, on cells; also called hRBC; human RBC membranes
T1 sequence (looked up): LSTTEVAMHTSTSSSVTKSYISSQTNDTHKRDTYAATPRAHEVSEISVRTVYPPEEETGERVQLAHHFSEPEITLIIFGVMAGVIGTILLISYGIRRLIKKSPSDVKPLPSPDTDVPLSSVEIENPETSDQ

T2: GP14 peptide of the human GPA ectodomain (human, not fully specified (N-terminus))
T2 peptide: PEEETGER

T3: GP9 peptide of the human GPA ectodomain (human, not fully specified (N-terminus))
T3 peptide: RTVYPPEE

T4: GP13 peptide of the human GPA ectodomain (human, not fully specified (N-terminus))
T4 peptide: PPEEETGE

T5: GP15 peptide of the human GPA ectodomain (human, not fully specified (N-terminus))
T5 peptide: EEETGERV

T6: GP10 peptide of the human GPA ectodomain (human, not fully specified (N-terminus))
T6 peptide: TVYPPEEE

T7: GP12 peptide of the human GPA ectodomain (human, not fully specified (N-terminus))
T7 peptide: YPPEEETG

T8: GP8 peptide of the human GPA ectodomain (human, not fully specified (N-terminus))
T8 peptide: VRTVYPPE

T9: GP16 peptide of the human GPA ectodomain (human, not fully specified (N-terminus))
T9 peptide: EETGERVQ

T10: GP11 peptide of the human GPA ectodomain (human, not fully specified (N-terminus))
T10 peptide: VYPPEEET

T11: GP7 peptide of the human GPA ectodomain (human, not fully specified (N-terminus))
T11 peptide: SVRTVYPP

B1: TPP-7790, affinity matured 6C12 Fab (Fab, V domains shown)
VH: EVQLVQSGAEVKKPGASVKVSCKASGYTFTTYAIHWVRQAPGQGLEWMGYINPSSGYTRYNPKFKHRVTMTRDKSTSTAYMELRSLRSDDTAVYYCWTGTRDYWGQGTTVTVSS
VL: DIQLTQSPSFLSASVGDRVTITCRASSSVRYIYWFQQKPGKAPKLLIYATSFLQSGVPSRFSGSGSGTEYTLTISSLQPEDFATYYCHQRNSFPYTFGQGTKLEIK
notes: Tested as Fab with a 6xHIS tag
B2: TPP-5906, humanized and germlined 6C12 Fab; VL: (S24R, A26S, S49A, P54Q, F95Y); VH: (I48M, D56G, D66G, L70M, T72R) (Fab, V domains shown)
VH: B1 VH with A33T, H66G, W97Q
VL: DIQLTQSPSFLSASVGDRVTITCRASSSVSYIYWFQQKPGKAPKLLIYATSTLQSGVPSRFSGSGSGTEYTLTISSLQPEDFATYYCHQRNSFPYTFGQGTKLEIKR
notes: The text says that a 6xHIS tag is present on the Fabs in the peptide ELISA; it is not in the printed chains

What was measured:
[1] = molecular target: T1, human glycophorin A on human red blood …; test: SPR (Biacore), Fab on human RBC membranes;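 further: human RBC membranes captured on an L1 sensor chip, Fab fragments passed over as analyte, binding kinetics read by surface plasmon resonance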
Experimental: Kinetic analysis of the antibody binding to human red blood cell membranes was also performed using surface plasmon resonance (SPR) using a Biacore instrument. In this assay membranes prepared from human red blood cells were attached to a L1 sensor matrix and antibodies were flowed over the RBC membranes.
The binding kinetics of the affinity matured Fab antibodies was also measured.

[2] = molecular target: T1, human glycophorin A on human red blood …; test: Fab on intact human RBC, unbound Fab by ELISA; 5 min after 200-fold dilution
Experimental: (§1) The binding of affinity matured Fab antibodies to intact human RBC was also measured. Human RBC were isolated from fresh anti-coagulated normal human blood by centrifugation through a ficol gradient and washing in PBS buffer. RBC diluted to 1/10th of normal hematocrit were incubated with purified Fab antibodies at a final concentration of 7 ug/ml for 1 hour at room temperature on a rotating shaker after which a sample was taken and the RBC were pelleted by centrifugation and the supernatant was collected. The remaining RBC suspension was diluted 200-fold in PBS buffer and incubated for a total of 2 hours at room temperature on a rotating shaker and samples were removed at 0, 5 min, 20 min, 1 h and 2 h and the RBC pelleted and the supernatant collected. The amount of Fab in the supernatants was then measured using an ELISA assay and the results used to calculate the percentage of the input Fab that was bound to the RBC. […] The percentage that remains bound after 200-fold dilution of the RBC suspension is an indication of the overall strength of the binding to human RBC.

[3] = molecular target: T2, GP14 peptide of the human GPA ectodomain; test: ELISA, Fab 0.5 ug/ml on biotin-peptide on streptavidin plate
Text: (§2) These peptides were attached to the surface of a streptavidin coated plate via a biotin moiety that was present at the N-terminus of each peptide.

[4] = molecular target: T3, GP9 peptide of the human GPA ectodomain; test: as above
Text: as §2

[5] = molecular target: T4, GP13 peptide of the human GPA ectodomain; test: as above
Text: as §2

[6] = molecular target: T5, GP15 peptide of the human GPA ectodomain; test: as above
Text: as §2

[7] = molecular target: T6, GP10 peptide of the human GPA ectodomain; test: as above
Text: as §2

[8] = molecular target: T7, GP12 peptide of the human GPA ectodomain; test: as above
Text: as §2

[9] = molecular target: T8, GP8 peptide of the human GPA ectodomain; test: as above
Text: as §2

[10] = molecular target: T12, GP5 peptide of the human GPA ectodomain (human, N-terminal biotin); test: as above
T12 construct: Residues 42 to 61 of the human GPA extracellular domain
Text: as §2

[11] = molecular target: T9, GP16 peptide of the human GPA ectodomain; test: as above
Text: as §2

[12] = molecular target: T10, GP11 peptide of the human GPA ectodomain; test: as above
Text: as §2

[13] = molecular target: T11, GP7 peptide of the human GPA ectodomain; test: as above
Text: as §2

[14] = molecular target: T2, GP14 peptide of the human GPA ectodomain; test: ELISA, Fab 0.05 ug/ml on biotin-peptide on streptavidin plate
Text: as §2

[15] = molecular target: T4, GP13 peptide of the human GPA ectodomain; test: as above
Text: as §2

[16] = molecular target: T5, GP15 peptide of the human GPA ectodomain; test: as above
Text: as §2

[17] = molecular target: T6, GP10 peptide of the human GPA ectodomain; test: as above
Text: as §2

[18] = molecular target: T7, GP12 peptide of the human GPA ectodomain; test: as above
Text: as §2

[19] = molecular target: T8, GP8 peptide of the human GPA ectodomain; test: as above
Text: as §2

[20] = molecular target: T12, GP5 peptide of the human GPA ectodomain; test: as above
Text: as §2

[21] = molecular target: T9, GP16 peptide of the human GPA ectodomain; test: as above
Text: as §2

[22] = molecular target: T10, GP11 peptide of the human GPA ectodomain; test: as above
Text: as §2

[23] = molecular target: T11, GP7 peptide of the human GPA ectodomain; test: as above
Text: as §2

[24] = molecular target: T1, human glycophorin A on human red blood …; test: Fab on intact human RBC, unbound Fab by ELISA; 20 min after 200-fold dilution
[25] = molecular target: T1, human glycophorin A on human red blood …; test: Fab on intact human RBC, unbound Fab by ELISA; 120 min after 200-fold dilution
Experimental: as §1

[26] = molecular target: T1, human glycophorin A on human red blood …; test: Fab on intact human RBC, unbound Fab by ELISA; 0 min after 200-fold dilution
Experimental: as §1

[27] = molecular target: T1, human glycophorin A on human red blood …; test: Fab on intact human RBC, unbound Fab by ELISA; 60 min after 200-fold dilution

Binder	kon [1] [M⁻¹ s⁻¹]	percentage of input antibody bound [2] [%]	binding signal in ELISA (relative light units) [3] [RLU]	binding signal in ELISA (relative light units) [4] [RLU]	binding signal in ELISA (relative light units) [5] [RLU]	binding signal in ELISA (relative light units) [6] [RLU]	binding signal in ELISA (relative light units) [7] [RLU]	binding signal in ELISA (relative light units) [8] [RLU]	binding signal in ELISA (relative light units) [9] [RLU]	binding signal in ELISA (relative light units) [10] [RLU]	binding signal in ELISA (relative light units) [11] [RLU]	binding signal in ELISA (relative light units) [12] [RLU]	binding signal in ELISA (relative light units) [13] [RLU]	binding signal in ELISA (relative light units) [14] [RLU]	binding signal in ELISA (relative light units) [15] [RLU]	binding signal in ELISA (relative light units) [16] [RLU]	binding signal in ELISA (relative light units) [17] [RLU]	binding signal in ELISA (relative light units) [18] [RLU]	binding signal in ELISA (relative light units) [19] [RLU]	binding signal in ELISA (relative light units) [20] [RLU]	also measured
B1	8.58e+06	89	0	169	-1	0	38	0	3370	6990	0	1	1	-1	0	-1	7	-1	83	2880	binding signal in ELISA (relative light units) [21]: -1 RLU; binding signal in ELISA (relative light units) [22]: 0 RLU; binding signal in ELISA (relative light units) [23]: 0 RLU; percentage of input antibody bound [24]: 88%; percentage of input antibody bound [25]: 88%; percentage of input antibody bound [26]: 88%; percentage of input antibody bound [27]: 87%
B2	7.14e+06	28	-1	1	-1	-1	0	-1	1	6680	-1	0	0	-1	-1	-1	0	-1	-1	2000	Kd [1]: 0.707 nM; koff [1]: 0.00504 s⁻¹; binding signal in ELISA (relative light units) [21]: 0 RLU; binding signal in ELISA (relative light units) [22]: -1 RLU; binding signal in ELISA (relative light units) [23]: -1 RLU; percentage of input antibody bound [24]: 4%; percentage of input antibody bound [25]: 8%; percentage of input antibody bound [26]: 82%; percentage of input antibody bound [27]: 8%
